In PMC3245711:

Target: T1, human KCNJ2 channel (pND-CTFH construct, C-terminal FLAG and octa-histidine tags) (human), P63252
T1 chain: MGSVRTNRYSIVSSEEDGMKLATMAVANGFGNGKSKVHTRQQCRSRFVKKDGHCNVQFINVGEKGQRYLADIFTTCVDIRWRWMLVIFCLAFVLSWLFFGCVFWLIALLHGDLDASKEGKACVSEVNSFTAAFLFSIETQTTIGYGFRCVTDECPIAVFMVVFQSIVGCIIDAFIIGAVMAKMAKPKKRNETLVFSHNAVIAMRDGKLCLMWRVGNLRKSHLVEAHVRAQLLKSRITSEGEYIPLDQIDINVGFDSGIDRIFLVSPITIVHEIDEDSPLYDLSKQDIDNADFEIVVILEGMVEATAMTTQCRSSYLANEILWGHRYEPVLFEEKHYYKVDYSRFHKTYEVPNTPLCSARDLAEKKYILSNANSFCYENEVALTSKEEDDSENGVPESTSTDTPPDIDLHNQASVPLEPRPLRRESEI
Assay: SEC
Details: remark: other sources report otherwise

B1: human KCNJ2 channel (pND-CTFH construct, C-terminal FLAG and octa-histidine tags), P63252 1-427 (natural protein)
chain: MGSVRTNRYSIVSSEEDGMKLATMAVANGFGNGKSKVHTRQQCRSRFVKKDGHCNVQFINVGEKGQRYLADIFTTCVDIRWRWMLVIFCLAFVLSWLFFGCVFWLIALLHGDLDASKEGKACVSEVNSFTAAFLFSIETQTTIGYGFRCVTDECPIAVFMVVFQSIVGCIIDAFIIGAVMAKMAKPKKRNETLVFSHNAVIAMRDGKLCLMWRVGNLRKSHLVEAHVRAQLLKSRITSEGEYIPLDQIDINVGFDSGIDRIFLVSPITIVHEIDEDSPLYDLSKQDIDNADFEIVVILEGMVEATAMTTQCRSSYLANEILWGHRYEPVLFEEKHYYKVDYSRFHKTYEVPNTPLCSARDLAEKKYILSNANSFCYENEVALTSKEEDDSENGVPESTSTDTPPDIDLHNQASVPLEPRPLRRESEI
Binder B1 has a stoichiometry N of 4.
